The results in this text go back to a protein production outcome set (Wang et al. 2014).

The data set is described as follows: label from the status in PepcDB records.
Turning to “MNEIHQPLARRVWRSNVDEEMARMAECLKRFPLIAFDTEYPGIIFRTYFDSSSDECYRAMKGNVENTKLIQCGFTLFNAKGEIGGVWEINFSNFGDPSDTRNELSIEFLRRHGLDLQKIRDEGVDMFGYGFFPKLMTVFRSQKHVEFVTFQGAYDFAYFLSILNHGKLPETHGEFATEVVKVFGQVYDTKVMAGFCEGLGEHLGLSKLAQLLQITRVGRAHHAGSDSLMTALVFIKLKHVYEDSRFARGLIYGIGKSNLVAAPAPAPVPEPTLPLMCQQNVASYPVFHNGYVQNYEQPQLVSYDPSGAPWAFCNATGTYVQLTHLPASTFAYPSQTPSATVDYLGPVPNYYNNNACYVVE”, the protein production entry is “failed”.
Under “MDVAGDEAGGTAGARDRVADRAAGRAVALGAIALLVAGALEAWAVLGGLEPARFWDTPSYLHDAGHLARGELPPLGLRMPGYPAFVALVGGRGPDLGRVAGAQAALWVASVVLAYALVRRLTGSLAAALAAGLAALSFVDLLFMAVTIYSETLCLALVCGAALATVAAFGGRTRAAVAGAGLLWAAAALVRPIFLASAGVYLLAALLLAARRALARRDVALAWAAVAAVVLAMASLNLARAGRFEFSPGAGLSLLNHVGHPAVYRHLPPDQAPIREVYERLAAEQGREWIGWWRAVGPLAQVVAPELAEAAGRLEVTAAEPVAERVALRALAAVPGGWLRVWADAAEQLLGRFALQLGWSARPDGPPQWPPGAWQHRAARDAEAAWRVGMPWLSAAALLLPPLALWLRARRRRRGDDVPGPAGAGAALATLWAIAGVNAGLSPALEPWAGQMRYRFPIQHLLLGLAIGAAVLAARALRPARGLAGAGSPAPGAGAARRT” stands “failed”; under “MPGRKRKLAAKTAELAPEAGEGSESTSLVGSADASASTAAGVAHTEQQEMPSGGLHESFLESIPPAASFLEELAWVESLASPSYVAYLCQMRRFDDVVAQRRLTTLQRWRQDPAYRQHVSQPIALFFLEQLCSAEFREALRHPAVAALYERQVDLYRRCYGNLLNTGESRVLR”, “not failed”; under “MNLPSRQWSSEVRQLVFIGFSAITAVVLSYSYVATVGLSEMLFAIVGAGLLLALVVILPVILLD”, “failed”.
Under “MDCCTENACSKPDDDILDIPLDDPGANAAAAKIQASFRGHMARKKIKSGERGRKGPGPGGPGGAGVARGGAGGGPSGD” stands “failed”; under “MYAPERQQEILRLARDGGRVDVVSLAEEFQVTAETIRRDLKALDRAGLLRRVHGGAIPAGRLDFEPDLAERESTAADEKDRIARAALAELPAEGTLILDAGSTVARMAAAIPPDASLTVVTHSLPIAARLADHPGIQLHIVGGRVRHRTRAAVDAWALRAYGEIRADVAVVAANGFSVEHGLTTPDLAEAAVKRAALTAARRVVLLADSSKYAQEHFARFGALGDVDLLITDQGLTPEDAGDIERAGTEVVRA”, “failed”.
Then “MAAASPLRDCQAWKDARLPLSTTSNEACKLFDATLTQYVKWTNDKSLGGIEGCLSKLKAADPTFVMGHAMATGLVLIGTGSSVKLDKELDLAVKTMVEISRTQPLTRREQLHVSAVETFANGNFPKACELWEQILQDHPTDMLALKFSHDAYFYLGYQEQMRDSVARIYPFWTPDIPLSSYVKGIYSFGLMETNFYDQAEKLAKEALSINPTDAWSVHTVAHIHEMKAEIKDGLEFMQHSETFWKDSDMLACHNYWHWALYLIEKGEYEAALTIYDTHILPSLQANDAMLDVVDSCSMLYRLQMEGVSVGQRWQDVLPVARKHSRDHILLFNDAHFLMASLGAHDPQTTQELLTTLRDASESPGENCQHLLARDVGLPLCQALVEAEDGNPDRVLELLLPIRYRIVQLGGSNAQRDVFNQLLIHAALNCTSSVHKNVARSLLMERDALKPNSPLTERLIRKAATVHLMQ”, with “failed”; and “MGGSFYPCLSVSKRAIGKNTAYSTLYYLQYTIKKASFSNVIYTSENNNIFRVSLLTFSFFYFTRTVKNSHMPTTTLEQQRTRQGVLFALGAYTIWGIAPIYFKTISEVSPLEILSHRVIWSFFFLAALLSFSKGWATVINTLKDKKKMTYLITTSVLIGANWLIFIWAVNAGHMLDASLGYYINPLLNVVLGMIFLGERLRRLQWVAVLFASAGVLIQLITFGSIPVVAIALACSFGFYGLLRKKVAMDAQTGLFIETLVMLPLTLIYLLFIADSATSNFSENTLNLNLLLIAAGIITTVPLLCFTGAATRLKLSTLGFFQYIGPSLMFLLAVGLYGEEFSADKAITFGFIWGALVIFTTDAFMARNKKNK”, with “failed”.
In the case of “MGHHHHHHSHMDNHNPMKDIEVTSSPDDSIGCLSFSPPTLPGNFLIAGSWANDVRCWEVQDSGQTIPKAQQMHTGPVLDVCWSDDGSKVFTASCDKTAKMWDLSSNQAIQIAQHDAPVKTIHWIKAPNYSCVMTGSWDKTLKFWDTRSSNPMMVLQLPERCYCADVIYPMAVVATAERGLIVYQLENQPSEFRRIESPLKHQHRCVAIFKDKQNKPTGFALGSIEGRVAIHYINPPNPAKDNFTFKCHRSNGTNTSAPQDIYAVNGIAFHPVHGTLATVGSDGRFSFWDKDARTKLKTSEQLDQPISACCFNHNGNIFAYASSYDWSKGHEFYNP”, the protein production entry is “failed”.
Under “ISDRKMAEIALRESEARFRNLFESNIVGMFFASNQGEIFDANDRFLQMIGFTKEELDLGLVHWDRLTPPEYDQKDQEIIARLRNHETPEPWQKEYYRKDGSRIPVLVGVASIDVELEYTVCIVVDMT” stands “failed”; under “MRRLRFSPRSSFARTLLLIVTLLFASLVTTYLVVLNFAILPSLQQFNKVLAYEVRMLMTDKLQLEDGTQLVVPPAFRREIYRELGISLYSNEAAEEAGLRWAQHYEFLSHQMAQQLGGPTEVRVEVNKSSPVVWLKTWLSPNIWVRVPLTEIHQGDFSPLFRYTLAIMLLAIGGAWLFIRIQNRPLVDLEHAALQVGKGIIPPPLREYGASEVRSVTRAFNHMAAGVKQLADDRTLLMAGVSHDLRTPLTRIRLATEMMSEQDGYLAESINKDIEECNAIIEQFIDYLRTGQEMPMEMADLNAVLGEVIAAESGYEREIETALYPGSIEVKMHPLSIKRAVANMVVNAARYGNGWIKVSSGTEPNRAWFQVEDDGPGIAPEQRKHLFQPFVRGDSARTISGTGLGLAIVQRIVDNHNGMLELGTSERGGLSIRAWLPVPVTRAQGTTKEG”, “failed”.
Under “MNDILQLTIVLIASLIATLVSRRLKIPAVVGQMLVGILIAPSVLGLVHSGHVLEVMSEIGVILLMFLAGIESDLTVLKKNFKASMLVAVGGVIVPLIAFGLVAFGFGYGISTSFFYGIVFAATSVSITVEVLQEYGKLSTRAGSIILGAAVVDDILAVLILSIFTSFKNGGSGSHLFIQFLLELLFFAFLFLVHKLIPRFWKFVQKLPIANKNTIVALIICLGLSLLADSVGMSAVIGSFFAGLAISQTEVSHKIEEYTSAIGYVIFIPVFFVLIAISVQFDSLIHHPWIILLFTFLAILTKFIPAYFVGKASKLSTGESMLIGTGMISRGEMALIVAQIGLTSAIITDEVYSELVIVIILATVLAPFLIKMVLKKYDN” stands “failed”; under “MENFAEIVGIGPAGVISITGGGGKTSLMFHLARQLAYSGKRVLTTTTTKILAPSVEESRTLLISQDPQVILRHAKAHPGPGVHVSAAAGHIPHTEKLQGFPREAIRTFEDSGEFDWVVVEADGAARKPLKAPAAHEPVIPGNSTIVVALAGLEVLGRPLGEEMVFRSELAGELMQIPQGETITVPALARLLAHPSGGFKGAPPQARRFIFLNKADTPELQEKGGEVALQLKEIAPSVAEAVIVGQLRQEITLHRVYPRGELEHHHHHH”, “not failed”.
Then “MIDSIRVEGFRGLKELELSSLRRINVIVGRNNSGKSTLLEALSLFLGSSDPGTFGNVLHEILIWRGWYGIQTVDDLFYNGGDSFSISSTGKTLEALNSKHSLEFKLNGEPFYKIDRESIRRLASQAVLLARFSPKENFEFLTPLTFRRFGYAESLYSYAYERKVVKDSIKVLNEAYPEVEGFSPLLKEDNWVLYVETKYGVYPYYLMGEGFKSAMIISFLSSLLRDGVLLIDSAEAFHHPKSLKVMIQTLVRGSEKNNVQVFLTTHSLELLDLMLEMGRDGFVIYMKNVEGRIEVESIEFQRASELRESIGVDLRGFLEHHHHHH”, with “not failed”.
In the case of “MVMQQIKKIGNSFWYMTPVSETDRPILGMVVGQEKTLMIDAGNSEEHAQLFLEMLKEQNVSNPDFVALTHWHWDHIFGLPVLQDALSIAHSETKKEMRTLVSYEWTDEALDARVKEGTEIAFCADCIKKEFEEKARNINIIPPTLTFQNQMELDLGEVTCVLKHVGGDHAHDSVVIYVKEEKILFLGDCIYADIFSSKWNYTTKRTFALIDELEKFDAETYILSHGEAINREEFLQEIRMLKAVGTYTEAHKGDEEKIKAAYKQELDRELNEDELETITYFVNGYEMNNQ”, the protein production result is reported as “failed”.
Take “MDIEIENHPLEPFLPANARLLMLGSFPPQKKRWSMDFYYPNLNNDMWRIVGLLFFNNKDYFLNETRKAFCRERIISFLNDKGIALFDTASAIRRLQDNASDKFLEVVQPTDISRLLGQLPECKAIVTTGQKATDTLRAQFEVEEPKVGDFSEFVFDGRPVRLYRMPSSSRAYPLALDKKAAAYRTMYQDLQMLNIELEHHHHHH”: the protein production entry was “not failed”.
Then “MNHVAVIGGGIIGASWAVVFARRGLEVTIVERDAACLAGLPARLAGMIERSASLLGAGEQPGDVAARIGATDALAAAVGRADYVQEAVSENLALKRTLFAELDALAPAHALLASSTSTYGASQFTEALAGRARCLVAHPMTPPHLSPVVEMAASAWTDPQVLAGAEAFMRSLGQHPVRIRKEIPGFVLNRLQGALLMEMFRVIADDVISPADADALISQGLGLRWATLGPLEGVDLNAPGGIADYLQRYGHIFNDMAVGQGLPAPVDAELISALDGAMRAALPLERLEAKRGWRDRAIAGVRVALHDYTGEKPLEHHHHHH”, with “failed”; and “METLSVIHTVANRLRELNPDMDIHISSTDAKVYIPTGQQVTVLIHYCGSVFAEPENTDATVQKQLIRISATVIVPQISDAINALDRLRRSLGGIELPDCDRPLWLESEKYIGDAANFCRYALDMTASTLFIAEQESKDSPLLTIVNYEEIQ”, with “not failed”; and “MKVAIMGAGAVGCYYGGMLARAGHEVILIARPQHVQAIEATGLRLETQSFDEQVKVSASSDPSAVQGADLVLFCVKSTDTQSAALAMKPALAKSALVLSLQNGVENADTLRSLLEQEVAAAVVYVATEMAGPGHVRHHGRGELVIEPTSHGANLAAIFAAAGVPVETSDNVRGALWAKLILNCAYNALSAITQLPYGRLVRGEGVEAVMRDVMEECFAVARAEGVKLPDDVALAIRRIAETMPRQSSSTAQDLARGKRSEIDHLNGLIVRRGDALGIPVPANRVLHALVRLIEDKQQHG”, with “not failed”.
Under “MKKQELIHLHGLLAQVQNHYEAESGTEVDHDEYEELGVKPTSIHKSKTDHKAAVFAIADGIASEMADETKEPVSAAADLEHHHHHH” stands “not failed”.
Under “MVNPIVVAAKQGQWQLVQEYLFAAASDQVNQRDERGLTVLMYAVASLEMTTVKQLLQAGADPNRSRPPHGITPLMLLAGLQSNPNNPEKNPVQQAIAAMLMEFGAEVNQGNDDGTTALMMAAYRNNLPLVETLLAGGARAKIQDQQGTTALEWAIKQQNLSMVRKLIEHHAPLDLSDGDGNLPLTLAIKTGDRVIVDYLLQAGAPWDQNGWFTAVEEGNVDQVKAFIQGGYPLTQAGDGGDTALHIACLEGYQSMVTILLEKGPKDMVNAVNQAGDTALHLAIAQGHVEIVTQLLNAGADGNFSSNGEPPLLTALTATHGNAQTQAVMVNALGRAGVDLDQTLWEGKTPLMLAAMANLAAVITTIANYSVQVNRGDPNGSTALMWACHRGHGAAVEALLTNFPALDLNLKNQGGQTALDLARLNHHGAIVALLESYISRSA” stands “failed”.
